T1: extracellular domain of hIFNgR1 (human, UniProt P15260 18-245)
T1 construct: also called hIFNgR1 ECD; human IFNgR1
T1 sequence: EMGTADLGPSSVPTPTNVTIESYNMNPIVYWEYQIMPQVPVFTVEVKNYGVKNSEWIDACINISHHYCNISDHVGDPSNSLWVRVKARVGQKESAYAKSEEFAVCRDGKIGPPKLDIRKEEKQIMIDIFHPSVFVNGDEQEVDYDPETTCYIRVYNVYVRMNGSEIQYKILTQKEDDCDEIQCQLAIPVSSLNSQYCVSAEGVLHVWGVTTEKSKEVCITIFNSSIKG

T2: extracellular domain of mIFNgR1 (mouse, UniProt P15261 26-254)
T2 construct: also called mIFNgR1 ECD; mouse IFNgR1
T2 sequence: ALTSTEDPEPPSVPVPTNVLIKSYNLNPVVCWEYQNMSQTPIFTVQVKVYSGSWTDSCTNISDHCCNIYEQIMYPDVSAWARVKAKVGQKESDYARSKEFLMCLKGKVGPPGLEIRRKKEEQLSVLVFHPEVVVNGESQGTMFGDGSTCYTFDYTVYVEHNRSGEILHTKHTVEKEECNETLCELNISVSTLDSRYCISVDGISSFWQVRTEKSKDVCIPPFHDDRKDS


What was measured:
[1] = molecular target: T1, extracellular domain of hIFNgR1; test: periplasmic extract ELISA on coated antigen
Procedure: Upon completion of the biopanning of Example 3, three 96-well plates of individual phage clones were isolated in order to perform periplasmic extract ELISA (PE-ELISA) on IFNgR1 coated plates to identify positive VHH binders that selectively bound IFNgR1. A 96-well plate was coated with IFNgR1 and PBS under the same conditions. Next, wells were blocked at 37° C. for 1 h. Then, […] was added to each well and incubated for 1 h. Subsequently, 100 μl of anti-tag polyclonal antibody conjugated to HRP was added to each well and incubated at 37° C. for 1 h. Plates were developed with TMB substrate. The reaction was stopped by the addition of H2SO4. Absorbance at 450 nm was read on a microtiter plate reader. Antibodies with absorbance of the antigen-coated well at least threefold greater than PBS-coated control were considered to provide specific binding to IFNgR1. Positive clones were sequenced, and sequences analyzed to identify unique clonotypes

[2] = molecular target: T2, extracellular domain of mIFNgR1; test: flow cytometry, cross-reactivity
[3] = molecular target: T1, extracellular domain of hIFNgR1; test: flow cytometry

Row | binding result [1] | binding result [2] | binding result [3] | Binder
1 | binds |  |  | DR921 (VHH, also called hIFNgR1 VHH) VHH: QVQLVESGGGLVQAGDSLRLSCAASGRTFTFSTHNMGWFRQAPGKEREFVGGIMWTSRASYADSVKGRFTVSRDNAKNTVYLQMNSLKPEDTAVYYCAAAWYGNSGASYDYWGQGTQVTVSS
2 | binds | binds |  | DR923 (VHH, also called hIFNgR1 VHH) VHH: QVQLVESGGGLVQAGGSLRLSCAASRRTFMTYAMGWFRQAPGKEREFVAAISWSSGSTYYADSVKGRFTISRDNAKNTMYLQMNSLKPEDTAVYYCTASSIATMYGPNDYAGQGTLVTVSS
3 | binds | binds |  | DR922 (VHH, also called hIFNgR1 VHH) VHH: QVQLVESGGGLVRAGGSLRLSCAASGSITSINTMGWFRQAPGKQRELVAAITSGGSTNYADSVKGRFTISRDNARNTVYLQMYSLKPEDTAVYYCEADSMYFRGQGTQVTVSS
4 | binds | binds |  | DR916 (VHH, also called hIFNgR1 VHH) VHH: EVQLVESGGGLVQPGGSLRLSCTASGRPRTTYAMGWFRQAPGKEREIVAAISKAGGSTYVADSAKGRFAISKDNAKNTVYLQMNSLKPEDTAVYYCAARAGFAAQIFEYDYWGQGTLVTVSS
5 | binds | binds |  | DR913 (VHH, also called hIFNgR1 VHH) VHH: EVQLVESGGGLVQAGGFLRLSCAASGRTFSSYAMGWFRQIPGKERELVAAISSWSGGSTYYADSVKGRFTISRDNAKNTVYLQMLSLKPEDTAVYYCTTGDYYSDYFKYDNENWGKGTQVTVSS
6 | binds | binds |  | DR920 (VHH, also called hIFNgR1 VHH) VHH: EVQLVESGGGLVQAGGSLRLSCAASGRSFANYAMGWFRQAPGKERETVAAISRGGGSTWYADSVKGRFTISKDNAKNTVYLQMNSLKPEDTAIYYCAARSYSGSYTYSFGEYDYWGQGTQVTVSS
7 |  | binds | binds | DR908 (VHH, also called hIFNgR1 VHH) VHH: EVQLVESGGGLVQAGGSLRVTCAASGRTFTSLAMGWFRQAPGKEREFVAAISRSGGSTDYADSVKGRFFISRDNAKSTLYLQMSSLKPEDTAVYYCAARDYSTLQYYNEYEYSDWGQGTQVTVSS
8 | binds | binds |  | DR903 (VHH, also called hIFNgR1 VHH) VHH: EVQLVESGGGLVQAGGSLRLSCAASGRIASDYTRGWFRQAPGKEREFVAAIIRSVGDSYYADSVKGRFTISIDNAENTVYLQMNSLKPEDTAVYYCAVGGHLYYGSRWRYPASYDYWGQGTQVTVSS
9 | binds | binds |  | DR918 (VHH, also called hIFNgR1 VHH) VHH: EVQLVESGGGLVQAGGSLRLSCATSGLTDSTYGMAWFRQAPGKEREFVAAISRAGGSADHADSVKGRFTVSRDNAKKMVYLQMNSLKPEDTAVYYCASGRSYSSPYDYFNALAYSYWGQGTQVTVSS
10 | binds | binds |  | DR914 (VHH, also called hIFNgR1 VHH) VHH: EVQLVESGGGLVQAGGSLTLSCVASGRAFSNSAMAWFRQTPGKEREFVSAISRGGGSTDYADSVKGRFTISKDNAKNTVYLQMNSLKPEDTAVYYCAMRYYSGRYYESLEYDYWGQGTQVTVSS
11 | binds |  |  | DR919 (VHH, also called hIFNgR1 VHH) VHH: EVQLVESGGGLVQPGGFLRLSCAASRRTLSTYAMGWFRQAPGKEREFVAAISWRSGNTYYADSVKGRFTISRDNAKNTMYLQMNSLKPEDTAVYYCAANEVATMSGPHDHWGQGTLVTVSS
12 |  | binds | binds | DR906 (VHH, also called hIFNgR1 VHH) VHH: EVQLVESGGGLVQAGGSLRLSCAASGSTFSTYVMGWFRQAPGKEREFVAAISRSGGTTTYADSVKGRFDISRDNGKNTLFLQMNSLIPEDTAAYYCAARAGPAIGRTANDYHSWGQGTLVTVSS
13 |  | binds | binds | DR909 (VHH, also called hIFNgR1 VHH) VHH: EVQLVESGGGLVQAGGSLRLSCAASGRTFGTSFGALSMGWFRQAPGKEREFVAAITRNTGRTFYADSVKDRFTISRDNAKNTASLQMNSLEPEDTAVYICAATNSYDDLRRSYAYNYWGQGTQVTVSS
14 | binds | binds |  | DR926 (VHH, also called hIFNgR1 VHH) VHH: EVQLVESGGGLVQAGGSLRLSCAASGRTFSRYAMNWFRQAPGKEREFVAAISWSSGNTYVADSVKGRFTISRDNAKNTMYLQMNNLAPEDTAVYYCAATTIATMSDENTYWGQGTQVTVSS
15 | binds |  |  | DR904 (VHH, also called hIFNgR1 VHH) VHH: EVQLVESGGGLVQAGGSLRLSCEASESILSINTMGWFRQAPGKQRELVAAISSGGSTNYADSVKGRFTISRDNAKNTVYLQMNSLKPEDTAVYYCDADRAYYKGQGTQVTVSS
16 | binds | binds |  | DR925 (VHH, also called hIFNgR1 VHH) VHH: EVQLVESGGGLVQAGGSLVLSCAASGRTFSRYAMGWFRQAPGKEREFVAAISIGGGSADYADTVKGRFTISRNNAKNTMYLQMNSLKPEDTAVYYCAARTPRPSSSYFTPQDYEYWGQGTLVTVSS
17 | binds | binds |  | DR915 (VHH, also called hIFNgR1 VHH) VHH: EVQLVESGGGLVQAGGSLRLSCAAARRTLHNFAMAWFRQAPGKEREFVAAISKGGGSADYADSVKGRFTISRDNAKNTVYLQMNSLKPEDTAVYYCAANDLASYSDSSYTSTSRYDYWGQGTQVTVSS
18 | binds | binds |  | DR924 (VHH, also called hIFNgR1 VHH) VHH: QVQLVESGGGLVQAGGSLRLSCTASGRTFSRYAMGWFRQAPGKEREFVATISRSGGTTSYANSVKGRFTISRDNAKNTVYLQMNSLKTEDTAVYNCAARDGPAMGVFGSDYDYWGQGTLVTVSS
19 |  | binds | binds | DR910 (VHH, also called hIFNgR1 VHH) VHH: EVQLVESGGGLVQTGGSLRLSCAASGRTFSSYAMAWFRQAPGKEREFVAAISILGGSADYEDSVQGRFTISRDNAKNTMYLQMNSLKPEDTAVYYCAARRPAPSDSYWSSTSYAYWGQGTLVTVSS
20 |  | binds | binds | DR905 (VHH, also called hIFNgR1 VHH) VHH: EVQLVESGGGLVQAGGSLRLSCVASGRTFTGYAMGWFRQAPGKEREFVAVITWSGATTYYSASVKGRFTLSRDNAKNTVYLQMNSLKSEDTAVYYCAIRIRDGVSPENPNEYGYWGQGTQVTVSS
21 |  | binds | binds | DR911 (VHH, also called hIFNgR1 VHH) VHH: EVQLVESGGALVQAGGSLRLSCTVSGRSFSTYAMAWFRRAPGKERELVSAITVGGGSTYYVDSVKGRFTISRENAKNTLYLQMNNLKPEDTAIYICAARDYRRRSYAPEAEQYDYWGQGTQVTVSS
22 | binds | binds |  | DR917 (VHH, also called hIFNgR1 VHH) VHH: EVQLVESGGGLVQAGGSLRLSCAASGRTFSGYNMGWFRQAPGKEREFVAAIAWAGSRTYYTDSVKGRFTISRDNAKNTMYLQMNTLRPEDTAVYYCAAHDETYYRLDRVDLYTHWGQGTLVTVSS
23 |  | binds | binds | DR907 (VHH, also called hIFNgR1 VHH) VHH: EVQLVESGGGLVQAGGSLRLSCAASGRTFSNYAMGWFRQAPGNEREFVAAINWNIGSTYYADSVKGRFTISRDNAKNTVYLQMNSLKPEDTAVYYCGAVWPTGRLRVDSEYDYWGQGTQVTVSS
24 | binds | binds |  | DR912 (VHH, also called hIFNgR1 VHH) VHH: EVQLVESGGGLVQAGGSLRLSCAPSGRTFSSYAMAWFRQPPGKEREFVAAITVSGASTYYADSVKGRFTISRDNAKNSMYLQMNSLKPEDTAVYYCAAGGPGTIFPDYDYWGQGTQVTVSS

Source: US20230365696A1 (SYNTHEKINE, published 2023)
